From patent US20220048967A1 (published 2022)
Numbered stars: 1 amine (or outer) side, 2 acyl side, 3 side chain; on linkers, the order of the positions; unused ones are H or OH. Square brackets hold non-standard residues; d marks the D form. Side chains are listed from the residue outwards. Ends that are not written are not given here. * marks the point of attachment. C20 diacid = O=C(O)CCCCCCCCCCCCCCCCCCC(=O)*; γGlu = O=C(O)[C@H](CCC(=O)[*:2])N[*:1]; αMeF = C[C@](N)(Cc1ccccc1)C(=O)O; AEEA = NCCOCCOCC(=O)O; Aib = CC(C)(N)C(=O)O

B1: Example 92 (peptide)
peptide: Y[Aib]EGT[αMeF]TSDK([AEEA-AEEA-γGlu-C20 diacid])SILLDKIAQ[Aib]AFIEYLIEGG-NH2
modifications: N-terminus assumed
SMILES: CC[C@H](C)[C@H](NC(=O)[C@H](CCCCN)NC(=O)[C@H](CC(=O)O)NC(=O)[C@H](CC(C)C)NC(=O)[C@H](CC(C)C)NC(=O)[C@@H](NC(=O)[C@H](CO)NC(=O)[C@H](CCCCNC(=O)COCCOCCNC(=O)COCCOCCNC(=O)CC[C@H](NC(=O)CCCCCCCCCCCCCCCCCCC(=O)O)C(=O)O)NC(=O)[C@H](CC(=O)O)NC(=O)[C@H](CO)NC(=O)[C@@H](NC(=O)[C@](C)(Cc1ccccc1)NC(=O)[C@@H](NC(=O)CNC(=O)[C@H](CCC(=O)O)NC(=O)C(C)(C)NC(=O)[C@@H](N)Cc1ccc(O)cc1)[C@@H](C)O)[C@@H](C)O)[C@@H](C)CC)C(=O)N[C@@H](C)C(=O)N[C@@H](CCC(N)=O)C(=O)NC(C)(C)C(=O)N[C@@H](C)C(=O)N[C@@H](Cc1ccccc1)C(=O)N[C@H](C(=O)N[C@@H](CCC(=O)O)C(=O)N[C@@H](Cc1ccc(O)cc1)C(=O)N[C@@H](CC(C)C)C(=O)N[C@H](C(=O)N[C@@H](CCC(=O)O)C(=O)NCC(=O)NCC(N)=O)[C@@H](C)CC)[C@@H](C)CC
B2: Example 85 (peptide)
peptide: Y[Aib]EGTFTSDASILLDKK([AEEA-AEEA-γGlu-C20 diacid])AQ[Aib]AFIEYLIEGGPSSGAPPPS-NH2
modifications: N-terminus assumed
SMILES: CC[C@H](C)[C@H](NC(=O)[C@H](CC(C)C)NC(=O)[C@H](Cc1ccc(O)cc1)NC(=O)[C@H](CCC(=O)O)NC(=O)[C@@H](NC(=O)[C@H](Cc1ccccc1)NC(=O)[C@H](C)NC(=O)C(C)(C)NC(=O)[C@H](CCC(N)=O)NC(=O)[C@H](C)NC(=O)[C@H](CCCCNC(=O)COCCOCCNC(=O)COCCOCCNC(=O)CC[C@H](NC(=O)CCCCCCCCCCCCCCCCCCC(=O)O)C(=O)O)NC(=O)[C@H](CCCCN)NC(=O)[C@H](CC(=O)O)NC(=O)[C@H](CC(C)C)NC(=O)[C@H](CC(C)C)NC(=O)[C@@H](NC(=O)[C@H](CO)NC(=O)[C@H](C)NC(=O)[C@H](CC(=O)O)NC(=O)[C@H](CO)NC(=O)[C@@H](NC(=O)[C@H](Cc1ccccc1)NC(=O)[C@@H](NC(=O)CNC(=O)[C@H](CCC(=O)O)NC(=O)C(C)(C)NC(=O)[C@@H](N)Cc1ccc(O)cc1)[C@@H](C)O)[C@@H](C)O)[C@@H](C)CC)[C@@H](C)CC)C(=O)N[C@@H](CCC(=O)O)C(=O)NCC(=O)NCC(=O)N1CCC[C@H]1C(=O)N[C@@H](CO)C(=O)N[C@@H](CO)C(=O)NCC(=O)N[C@@H](C)C(=O)N1CCC[C@H]1C(=O)N1CCC[C@H]1C(=O)N1CCC[C@H]1C(=O)N[C@@H](CO)C(N)=O
B3: Example 5 (peptide)
peptide: YXEGTXTSDVSIXLDXKAQXEFIXXLIEGGPSSGAPPPS
modifications: Aib2; αMeF(2F)6; αMeL13; Orn16; K17((2-[2-(2-Amino-ethoxy)-ethoxy]-acetyl)2-(γ-Glu)-CO-(CH2)16-CO2H); Aib20; D-Glu24; αMeY25; C-terminal NH2
B4: Example 86 (peptide)
peptide: Y[Aib]EGTFTSDYSILLDKK([AEEA-AEEA-γGlu-C20 diacid])AQ[Aib]AFIEYLIEAGPSSGAPPPS-NH2
modifications: N-terminus assumed
SMILES: CC[C@H](C)[C@H](NC(=O)[C@H](CC(C)C)NC(=O)[C@H](Cc1ccc(O)cc1)NC(=O)[C@H](CCC(=O)O)NC(=O)[C@@H](NC(=O)[C@H](Cc1ccccc1)NC(=O)[C@H](C)NC(=O)C(C)(C)NC(=O)[C@H](CCC(N)=O)NC(=O)[C@H](C)NC(=O)[C@H](CCCCNC(=O)COCCOCCNC(=O)COCCOCCNC(=O)CC[C@H](NC(=O)CCCCCCCCCCCCCCCCCCC(=O)O)C(=O)O)NC(=O)[C@H](CCCCN)NC(=O)[C@H](CC(=O)O)NC(=O)[C@H](CC(C)C)NC(=O)[C@H](CC(C)C)NC(=O)[C@@H](NC(=O)[C@H](CO)NC(=O)[C@H](Cc1ccc(O)cc1)NC(=O)[C@H](CC(=O)O)NC(=O)[C@H](CO)NC(=O)[C@@H](NC(=O)[C@H](Cc1ccccc1)NC(=O)[C@@H](NC(=O)CNC(=O)[C@H](CCC(=O)O)NC(=O)C(C)(C)NC(=O)[C@@H](N)Cc1ccc(O)cc1)[C@@H](C)O)[C@@H](C)O)[C@@H](C)CC)[C@@H](C)CC)C(=O)N[C@@H](CCC(=O)O)C(=O)N[C@@H](C)C(=O)NCC(=O)N1CCC[C@H]1C(=O)N[C@@H](CO)C(=O)N[C@@H](CO)C(=O)NCC(=O)N[C@@H](C)C(=O)N1CCC[C@H]1C(=O)N1CCC[C@H]1C(=O)N1CCC[C@H]1C(=O)N[C@@H](CO)C(N)=O
B5: Example 88 (peptide)
peptide: YPEGTFTSDYSILLDKK([AEEA-AEEA-γGlu-C20 diacid])AQ[Aib]AFIEYLIEGGPSSGAPPPS-NH2
modifications: N-terminus assumed
SMILES: CC[C@H](C)[C@H](NC(=O)[C@H](CC(C)C)NC(=O)[C@H](Cc1ccc(O)cc1)NC(=O)[C@H](CCC(=O)O)NC(=O)[C@@H](NC(=O)[C@H](Cc1ccccc1)NC(=O)[C@H](C)NC(=O)C(C)(C)NC(=O)[C@H](CCC(N)=O)NC(=O)[C@H](C)NC(=O)[C@H](CCCCNC(=O)COCCOCCNC(=O)COCCOCCNC(=O)CC[C@H](NC(=O)CCCCCCCCCCCCCCCCCCC(=O)O)C(=O)O)NC(=O)[C@H](CCCCN)NC(=O)[C@H](CC(=O)O)NC(=O)[C@H](CC(C)C)NC(=O)[C@H](CC(C)C)NC(=O)[C@@H](NC(=O)[C@H](CO)NC(=O)[C@H](Cc1ccc(O)cc1)NC(=O)[C@H](CC(=O)O)NC(=O)[C@H](CO)NC(=O)[C@@H](NC(=O)[C@H](Cc1ccccc1)NC(=O)[C@@H](NC(=O)CNC(=O)[C@H](CCC(=O)O)NC(=O)[C@@H]1CCCN1C(=O)[C@@H](N)Cc1ccc(O)cc1)[C@@H](C)O)[C@@H](C)O)[C@@H](C)CC)[C@@H](C)CC)C(=O)N[C@@H](CCC(=O)O)C(=O)NCC(=O)NCC(=O)N1CCC[C@H]1C(=O)N[C@@H](CO)C(=O)N[C@@H](CO)C(=O)NCC(=O)N[C@@H](C)C(=O)N1CCC[C@H]1C(=O)N1CCC[C@H]1C(=O)N1CCC[C@H]1C(=O)N[C@@H](CO)C(N)=O
B6: Example 89 (peptide)
peptide: YXXGTFTSDYSILLDKKAQXAFIEYLIEGGPSSGAPPPS
modifications: Aib2; Aad3; K17((2-[2-(2-Amino-ethoxy)-ethoxy]-acetyl)2-(γ-Glu)-CO-(CH2)18-CO2H); Aib20; C-terminal NH2
B7: Example 91 (peptide)
peptide: B6 peptide
modifications: Aib2; γ-Glu3; K17((2-[2-(2-Amino-ethoxy)-ethoxy]-acetyl)2-(γ-Glu)-CO-(CH2)18-CO2H); Aib20; C-terminal NH2
B8: Example 90 (peptide)
peptide: Y[Aib]NGTFTSDYSILLDKK([AEEA-AEEA-γGlu-C20 diacid])AQ[Aib]AFIEYLIEGGPSSGAPPPS-NH2
modifications: N-terminus assumed
SMILES: CC[C@H](C)[C@H](NC(=O)[C@H](CC(C)C)NC(=O)[C@H](Cc1ccc(O)cc1)NC(=O)[C@H](CCC(=O)O)NC(=O)[C@@H](NC(=O)[C@H](Cc1ccccc1)NC(=O)[C@H](C)NC(=O)C(C)(C)NC(=O)[C@H](CCC(N)=O)NC(=O)[C@H](C)NC(=O)[C@H](CCCCNC(=O)COCCOCCNC(=O)COCCOCCNC(=O)CC[C@H](NC(=O)CCCCCCCCCCCCCCCCCCC(=O)O)C(=O)O)NC(=O)[C@H](CCCCN)NC(=O)[C@H](CC(=O)O)NC(=O)[C@H](CC(C)C)NC(=O)[C@H](CC(C)C)NC(=O)[C@@H](NC(=O)[C@H](CO)NC(=O)[C@H](Cc1ccc(O)cc1)NC(=O)[C@H](CC(=O)O)NC(=O)[C@H](CO)NC(=O)[C@@H](NC(=O)[C@H](Cc1ccccc1)NC(=O)[C@@H](NC(=O)CNC(=O)[C@H](CC(N)=O)NC(=O)C(C)(C)NC(=O)[C@@H](N)Cc1ccc(O)cc1)[C@@H](C)O)[C@@H](C)O)[C@@H](C)CC)[C@@H](C)CC)C(=O)N[C@@H](CCC(=O)O)C(=O)NCC(=O)NCC(=O)N1CCC[C@H]1C(=O)N[C@@H](CO)C(=O)N[C@@H](CO)C(=O)NCC(=O)N[C@@H](C)C(=O)N1CCC[C@H]1C(=O)N1CCC[C@H]1C(=O)N1CCC[C@H]1C(=O)N[C@@H](CO)C(N)=O

Legend:
[1] = target: T1, human GIP receptor (human, UniProt P48546 22-466); experiment: cell-based or functional assay
T1 sequence (looked up): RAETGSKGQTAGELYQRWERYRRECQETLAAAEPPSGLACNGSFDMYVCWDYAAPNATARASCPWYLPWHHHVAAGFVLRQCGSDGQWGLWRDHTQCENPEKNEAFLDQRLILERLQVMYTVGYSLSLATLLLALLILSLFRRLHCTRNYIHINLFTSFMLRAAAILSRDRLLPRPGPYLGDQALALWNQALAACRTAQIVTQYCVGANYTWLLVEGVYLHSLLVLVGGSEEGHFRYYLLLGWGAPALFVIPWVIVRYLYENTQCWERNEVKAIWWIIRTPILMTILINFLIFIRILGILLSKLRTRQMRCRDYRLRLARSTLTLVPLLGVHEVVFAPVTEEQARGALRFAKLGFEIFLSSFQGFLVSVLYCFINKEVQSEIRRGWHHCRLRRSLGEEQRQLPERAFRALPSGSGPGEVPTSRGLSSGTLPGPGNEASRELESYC

[2] = target: human GLP-1 receptor (human, UniProt P43220 24-463); experiment: cell-based or functional assay

Binder | hGIPR cAMP EC50 ratio [1] | hGIPR cAMP Rel EC50 [1] [nM] | hGLP1R cAMP EC50 ratio [2] | hGLP1R cAMP Rel EC50 [2] [nM]
B1 | 0.546 | 0.338 | 0.258 | 0.257
B2 | 0.111 | 1.67 | 1.13 | 0.0518
B3 | 6.27 | 0.0309 | 2.69 | 0.0164
B4 | 3.29 | 0.0452 | 0.243 | 0.271
B5 | 0.392 | 0.475 | 0.0918 | 0.64
B6 | 1.57 | 0.119 | 0.175 | 0.335
B7 | 0.0103 | 19.2 | < 1.08e-05 | > 5000
B8 | 5.17 | 0.0361 | 0.11 | 0.532
